B1: G1′-4′ (peptide)
peptide: LSFP
modifications: not checked
B2: MS (peptide)
peptide: YALAPNAVIPTSLALL
modifications: not checked

Target: T1, PapD (wild type) (E. coli), P15319
T1 chain: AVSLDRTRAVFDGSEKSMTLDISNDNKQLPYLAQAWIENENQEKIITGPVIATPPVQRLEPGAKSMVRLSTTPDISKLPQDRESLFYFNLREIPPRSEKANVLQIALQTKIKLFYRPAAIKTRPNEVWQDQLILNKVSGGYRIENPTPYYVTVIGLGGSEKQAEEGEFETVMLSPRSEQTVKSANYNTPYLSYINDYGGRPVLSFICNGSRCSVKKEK

Binder	% Inhibition [%]
B1	0
B2	1
